System: KDM4A-I71AzF
Assay: CASI: photo-crosslinking with HEK293T cell extracts, StrepTactin enrichment and LC-MS/MS proteomics;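 note: lysates from HEK293T cells pretreated with a KDM4 inhibitor to raise proteome methylation, affinity-purified after ±UV, gel-resolved, trypsin-digested, with exclusive unique peptides per protein averaged per condition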
Assay type: binding, human
Details: sheet "Final results but with 0.01"

| Molecule | Fold change (+UV/-UV) |
| --- | --- |
| U2AF2_HUMAN (protein, UniProt P26368 2-475, looked up) Splicing factor U2AF 65 kDa …: SDFDEFERQLNENKQERDKENRHRKRSHSRSRSRDRKRRSRSRDRRNRDQRSASRDRRRRSKPLTRGAKEEHGGLIRSPRHEKKKKVRKYWDVPPPGFEHITPMQYKAMQAAGQIPATALLPTMTPDGLAVTPTPVPVVGSQMTRQARRLYVGNIPFGITEEAMMDFFNAQMRLGGLTQAPGNPVLAVQINQDKNFAFLEFRSVDETTQAMAFDGIIFQGQSLKIRRPHDYQPLPGMSENPSVYVPGVVSTVVPDSAHKLFIGGLPNYLNDDQVKELLTSFGPLKAFNLVKDSATGLSKGYAFCEYVDINVTDQAIAGLNGMQLGDKKLLVQRASVGAKNATLVSPPSTINQTPVTLQVPGLMSSQVQMGGHPTEVLCLMNMVLPEELLDDEEYEEIVEDVRDECSKYGLVKSIEIPRPVDGVEVPGCGKIFVEFTSVFDCQKAMQGLTGRKFANRVVVTKYCDPDSYHRRDFW | 2 |
| CPSF7_HUMAN (protein, UniProt Q8N684 1-471, looked up) Cleavage and polyadenylation …: MSEGVDLIDIYADEEFNQDPEFNNTDQIDLYDDVLTATSQPSDDRSSSTEPPPPVRQEPSPKPNNKTPAILYTYSGLRNRRAAVYVGSFSWWTTDQQLIQVIRSIGVYDVVELKFAENRANGQSKGYAEVVVASENSVHKLLELLPGKVLNGEKVDVRPATRQNLSQFEAQARKRECVRVPRGGIPPRAHSRDSSDSADGRATPSENLVPSSARVDKPPSVLPYFNRPPSALPLMGLPPPPIPPPPPLSSSFGVPPPPPGIHYQHLMPPPPRLPPHLAVPPPGAIPPALHLNPAFFPPPNATVGPPPDTYMKASAPYNHHGSRDSGPPPSTVSEAEFEDIMKRNRAISSSAISKAVSGASAGDYSDAIETLLTAIAVIKQSRVANDERCRVLISSLKDCLHGIEAKSYSVGASGSSSRKRHRSRERSPSRSRESSRRHRDLLHNEDRHDDYFQERNREHERHRDRERDRHH | 1 |
| CACP_HUMAN (protein, UniProt P43155 1-626, looked up) Carnitine O-acetyltransferase: MLAFAARTVVKPLGFLKPFSLMKASSRFKAHQDALPRLPVPPLQQSLDHYLKALQPIVSEEEWAHTKQLVDEFQASGGVGERLQKGLERRARKTENWLSEWWLKTAYLQYRQPVVIYSSPGVMLPKQDFVDLQGQLRFAAKLIEGVLDFKVMIDNETLPVEYLGGKPLCMNQYYQILSSCRVPGPKQDTVSNFSKTKKPPTHITVVHNYQFFELDVYHSDGTPLTADQIFVQLEKIWNSSLQTNKEPVGILTSNHRNSWAKAYNTLIKDKVNRDSVRSIQKSIFTVCLDATMPRVSEDVYRSHVAGQMLHGGGSRLNSGNRWFDKTLQFIVAEDGSCGLVYEHAAAEGPPIVTLLDYVIEYTKKPELVRSPLVPLPMPKKLRFNITPEIKSDIEKAKQNLSIMIQDLDITVMVFHHFGKDFPKSEKLSPDAFIQMALQLAYYRIYGQACATYESASLRMFHLGRTDTIRSASMDSLTFVKAMDDSSVTEHQKVELLRKAVQAHRGYTDRAIRGEAFDRHLLGLKLQAIEDLVSMPDIFMDTSYAIAMHFHLSTSQVPAKTDCVMFFGPVVPDGYGVCYNPMEAHINFSLSAYNSCAETNAARLAHYLEKALLDMRALLQSHPRAKL | 0 |
| SF3A3_HUMAN (protein, UniProt Q12874 1-501, looked up) Splicing factor 3A subunit 3: METILEQQRRYHEEKERLMDVMAKEMLTKKSTLRDQINSDHRTRAMQDRYMEVSGNLRDLYDDKDGLRKEELNAISGPNEFAEFYNRLKQIKEFHRKHPNEICVPMSVEFEELLKARENPSEEAQNLVEFTDEEGYGRYLDLHDCYLKYINLKASEKLDYITYLSIFDQLFDIPKERKNAEYKRYLEMLLEYLQDYTDRVKPLQDQNELFGKIQAEFEKKWENGTFPGWPKETSSALTHAGAHLDLSAFSSWEELASLGLDRLKSALLALGLKCGGTLEERAQRLFSTKGKSLESLDTSLFAKNPKSKGTKRDTERNKDIAFLEAQIYEYVEILGEQRHLTHENVQRKQARTGEEREEEEEEQISESESEDEENEIIYNPKNLPLGWDGKPIPYWLYKLHGLNINYNCEICGNYTYRGPKAFQRHFAEWRHAHGMRCLGIPNTAHFANVTQIEDAVSLWAKLKLQKASERWQPDTEEEYEDSSGNVVNKKTYEDLKRQGLL | 2 |
| HNRPR_HUMAN (protein, UniProt O43390 2-633, looked up) Heterogeneous nuclear …: ANQVNGNAVQLKEEEEPMDTSSVTHTEHYKTLIEAGLPQKVAERLDEIFQTGLVAYVDLDERAIDALREFNEEGALSVLQQFKESDLSHVQNKSAFLCGVMKTYRQREKQGSKVQESTKGPDEAKIKALLERTGYTLDVTTGQRKYGGPPPDSVYSGVQPGIGTEVFVGKIPRDLYEDELVPLFEKAGPIWDLRLMMDPLSGQNRGYAFITFCGKEAAQEAVKLCDSYEIRPGKHLGVCISVANNRLFVGSIPKNKTKENILEEFSKVTEGLVDVILYHQPDDKKKNRGFCFLEYEDHKSAAQARRRLMSGKVKVWGNVVTVEWADPVEEPDPEVMAKVKVLFVRNLATTVTEEILEKSFSEFGKLERVKKLKDYAFVHFEDRGAAVKAMDEMNGKEIEGEEIEIVLAKPPDKKRKERQAARQASRSTAYEDYYYHPPPRMPPPIRGRGRGGGRGGYGYPPDYYGYEDYYDDYYGYDYHDYRGGYEDPYYGYDDGYAVRGRGGGRGGRGAPPPPRGRGAPPPRGRAGYSQRGAPLGPPRGSRGGRGGPAQQQRGRGSRGSRGNRGGNVGGKRKADGYNQPDSKRRQTNNQQNWGSQPIAQQPLQQGGDYSGNYGYNNDNQEFYQDTYGQQWK | 2 |
| SYFA_HUMAN (protein, UniProt Q9Y285 2-508, looked up) Phenylalanine--tRNA ligase …: ADGQVAELLLRRLEASDGGLDSAELAAELGMEHQAVVGAVKSLQALGEVIEAELRSTKHWELTAEGEEIAREGSHEARVFRSIPPEGLAQSELMRLPSGKVGFSKAMSNKWIRVDKSAADGPRVFRVVDSMEDEVQRRLQLVRGGQAEKLGEKERSELRKRKLLAEVTLKTYWVSKGSAFSTSISKQETELSPEMISSGSWRDRPFKPYNFLAHGVLPDSGHLHPLLKVRSQFRQIFLEMGFTEMPTDNFIESSFWNFDALFQPQQHPARDQHDTFFLRDPAEALQLPMDYVQRVKRTHSQGGYGSQGYKYNWKLDEARKNLLRTHTTSASARALYRLAQKKPFTPVKYFSIDRVFRNETLDATHLAEFHQIEGVVADHGLTLGHLMGVLREFFTKLGITQLRFKPAYNPYTEPSMEVFSYHQGLKKWVEVGNSGVFRPEMLLPMGLPENVSVIAWGLSLERPTMIKYGINNIRELVGHKVNLQMVYDSPLCRLDAEPRPPPTQEAA | 4 |
| SYDC_HUMAN (protein, UniProt P14868 1-501, looked up) Aspartate--tRNA ligase, …: MPSASASRKSQEKPREIMDAAEDYAKERYGISSMIQSQEKPDRVLVRVRDLTIQKADEVVWVRARVHTSRAKGKQCFLVLRQQQFNVQALVAVGDHASKQMVKFAANINKESIVDVEGVVRKVNQKIGSCTQQDVELHVQKIYVISLAEPRLPLQLDDAVRPEAEGEEEGRATVNQDTRLDNRVIDLRTSTSQAVFRLQSGICHLFRETLINKGFVEIQTPKIISAASEGGANVFTVSYFKNNAYLAQSPQLYKQMCICADFEKVFSIGPVFRAEDSNTHRHLTEFVGLDIEMAFNYHYHEVMEEIADTMVQIFKGLQERFQTEIQTVNKQFPCEPFKFLEPTLRLEYCEALAMLREAGVEMGDEDDLSTPNEKLLGHLVKEKYDTDFYILDKYPLAVRPFYTMPDPRNPKQSNSYDMFMRGEEILSGAQRIHDPQLLTERALHHGIDLEKIKAYIDSFRFGAPPHAGGGIGLERVTMLFLGLHNVRQTSMFPRDPKRLTP | 2 |
| SYCM_HUMAN (protein, UniProt Q6PI48 48-645, looked up) Aspartate--tRNA ligase, …: VVRTNTCGELRSSHLGQEVTLCGWIQYRRQNTFLVLRDFDGLVQVIIPQDESAASVKKILCEAPVESVVQVSGTVISRPAGQENPKMPTGEIEIKVKTAELLNACKKLPFEIKNFVKKTEALRLQYRYLDLRSFQMQYNLRLRSQMVMKMREYLCNLHGFVDIETPTLFKRTPGGAKEFLVPSREPGKFYSLPQSPQQFKQLLMVGGLDRYFQVARCYRDEGSRPDRQPEFTQIDIEMSFVDQTGIQSLIEGLLQYSWPNDKDPVVVPFPTMTFAEVLATYGTDKPDTRFGMKIIDISDVFRNTEIGFLQDALSKPHGTVKAICIPEGAKYLKRKDIESIRNFAADHFNQEILPVFLNANRNWNSPVANFIMESQRLELIRLMETQEEDVVLLTAGEHNKACSLLGKLRLECADLLETRGVVLRDPTLFSFLWVVDFPLFLPKEENPRELESAHHPFTAPHPSDIHLLYTEPKKARSQHYDLVLNGNEIGGGSIRIHNAELQRYILATLLKEDVKMLSHLLQALDYGAPPHGGIALGLDRLICLVTGSPSIRDVIAFPKSFRGHDLMSNTPDSVPPEELKPYHIRVSKPTDSKAERAH | 1 |
| NUCB1_HUMAN (protein, UniProt Q02818 27-461, looked up) Nucleobindin-1: VPLERGAPNKEETPATESPDTGLYYHRYLQEVIDVLETDGHFREKLQAANAEDIKSGKLSRELDFVSHHVRTKLDELKRQEVSRLRMLLKAKMDAEQDPNVQVDHLNLLKQFEHLDPQNQHTFEARDLELLIQTATRDLAQYDAAHHEEFKRYEMLKEHERRRYLESLGEEQRKEAERKLEEQQRRHREHPKVNVPGSQAQLKEVWEELDGLDPNRFNPKTFFILHDINSDGVLDEQELEALFTKELEKVYDPKNEEDDMREMEEERLRMREHVMKNVDTNQDRLVTLEEFLASTQRKEFGDTGEGWETVEMHPAYTEEELRRFEEELAAREAELNAKAQRLSQETEALGRSQGRLEAQKRELQQAVLHMEQRKQQQQQQQGHKAPAAHPEGQLKFHPDTDDVPVPAPAGDQKEVDTSEKKLLERLPEVEVPQHL | 3 |
| TCPB_HUMAN (protein, UniProt P78371 2-535, looked up) T-complex protein 1 subunit …: ASLSLAPVNIFKAGADEERAETARLTSFIGAIAIGDLVKSTLGPKGMDKILLSSGRDASLMVTNDGATILKNIGVDNPAAKVLVDMSRVQDDEVGDGTTSVTVLAAELLREAESLIAKKIHPQTIIAGWREATKAAREALLSSAVDHGSDEVKFRQDLMNIAGTTLSSKLLTHHKDHFTKLAVEAVLRLKGSGNLEAIHIIKKLGGSLADSYLDEGFLLDKKIGVNQPKRIENAKILIANTGMDTDKIKIFGSRVRVDSTAKVAEIEHAEKEKMKEKVERILKHGINCFINRQLIYNYPEQLFGAAGVMAIEHADFAGVERLALVTGGEIASTFDHPELVKLGSCKLIEEVMIGEDKLIHFSGVALGEACTIVLRGATQQILDEAERSLHDALCVLAQTVKDSRTVYGGGCSEMLMAHAVTQLANRTPGKEAVAMESYAKALRMLPTIIADNAGYDSADLVAQLRAAHSEGNTTAGLDMREGTIGDMAILGITESFQVKRQVLLSAAEAAEVILRVDNIIKAAPRKRVPDHHPC | 1 |
| SF3B4_HUMAN (protein, UniProt Q15427 2-424, looked up) Splicing factor 3B subunit 4: AAGPISERNQDATVYVGGLDEKVSEPLLWELFLQAGPVVNTHMPKDRVTGQHQGYGFVEFLSEEDADYAIKIMNMIKLYGKPIRVNKASAHNKNLDVGANIFIGNLDPEIDEKLLYDTFSAFGVILQTPKIMRDPDTGNSKGYAFINFASFDASDAAIEAMNGQYLCNRPITVSYAFKKDSKGERHGSAAERLLAAQNPLSQADRPHQLFADAPPPPSAPNPVVSSLGSGLPPPGMPPPGSFPPPVPPPGALPPGIPPAMPPPPMPPGAAGHGPPSAGTPGAGHPGHGHSHPHPFPPGGMPHPGMSQMQLAHHGPHGLGHPHAGPPGSGGQPPPRPPPGMPHPGPPPMGMPPRGPPFGSPMGHPGPMPPHGMRGPPPLMPPHGYTGPPRPPPYGYQRGPLPPPRPTPRPPVPPRGPLRGPLPQ | 0.75 |
